B1: Epsin-1 (Saccharomyces cerevisiae), Q12518 (parent)
chain: MSKQFVRSAKNLVKGYSSTQVLVRNATSNDNHQVSKDSLIELAEKSYDSADFFEIMDMLDKRLNDKGKYWRHIAKALTVIDYLIRFGSENCVLWCRENLYIIKTLKEFRHEDDEGIDQGQIVRVKAKELTALLSDDERLNEERNMNIKGRNRKGRRRRGTGRSDENDDDLQRAISASRLTAEEDERRRKQDEDYETALQLSKEEEELKRLQDLQRMQQQQGQQQLQQPMYYDIFGNPITPEEYAQFQLQQQQQQQQQQLQQQPMYYDVFGNPITPEELAQFQQQQQLQEQQYLASMQQQQQAMSNNPFAKSEQSSSSPKRNQLVAASSPQQLQQQKQQEPLIQNRTGNQSMTDKYSKLNELLATGTGIDTFGNVGEARIPAQHTKTGTFINSQGTGYRQVSDDPNHNPFLNSQYTGLPSTSVVPTQTGYGFGNQSQQQSQNNGSNNRGYTLIDL
partner: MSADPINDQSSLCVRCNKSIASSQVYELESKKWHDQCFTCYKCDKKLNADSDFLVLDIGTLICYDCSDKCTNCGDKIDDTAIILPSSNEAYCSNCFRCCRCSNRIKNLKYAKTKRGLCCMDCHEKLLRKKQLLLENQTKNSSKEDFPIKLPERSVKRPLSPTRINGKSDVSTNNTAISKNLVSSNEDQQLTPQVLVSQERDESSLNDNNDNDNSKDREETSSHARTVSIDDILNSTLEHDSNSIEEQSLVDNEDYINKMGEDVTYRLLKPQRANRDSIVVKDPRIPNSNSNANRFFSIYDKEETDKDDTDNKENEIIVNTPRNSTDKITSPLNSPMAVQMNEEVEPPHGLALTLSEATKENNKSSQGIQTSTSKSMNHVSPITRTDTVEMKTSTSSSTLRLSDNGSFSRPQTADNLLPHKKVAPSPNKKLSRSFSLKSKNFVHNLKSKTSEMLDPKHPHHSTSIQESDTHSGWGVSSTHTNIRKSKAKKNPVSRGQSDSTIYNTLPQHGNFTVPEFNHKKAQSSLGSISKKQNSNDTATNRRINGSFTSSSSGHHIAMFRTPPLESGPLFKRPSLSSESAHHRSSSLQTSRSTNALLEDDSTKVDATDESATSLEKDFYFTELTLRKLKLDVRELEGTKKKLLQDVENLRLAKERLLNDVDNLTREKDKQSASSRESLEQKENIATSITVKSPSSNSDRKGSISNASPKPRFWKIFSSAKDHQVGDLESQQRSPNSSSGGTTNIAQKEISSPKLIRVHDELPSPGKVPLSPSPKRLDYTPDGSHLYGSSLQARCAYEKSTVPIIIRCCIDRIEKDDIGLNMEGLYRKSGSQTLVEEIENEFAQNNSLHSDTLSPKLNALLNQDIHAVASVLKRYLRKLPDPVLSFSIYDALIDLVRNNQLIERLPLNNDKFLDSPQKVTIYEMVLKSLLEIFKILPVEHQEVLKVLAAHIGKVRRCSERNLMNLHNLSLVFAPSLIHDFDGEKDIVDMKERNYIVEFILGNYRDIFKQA

Variants of: B1
Conditions: with rga2_yeast RGA2, Q06407

effect of a mutation on the interaction | Variant
disrupting interaction strength | T104D
disrupting interaction strength | Y100R;T104D

Variants of: B1
Conditions: with rga2_yeast RGA2, Q06407
Remark: another data set of the same source

effect of a mutation on the interaction | Variant
disrupting interaction strength | Y100R

From IntAct's records for PubMed 16537494
